The data set concerns the molecule itself. Briefly: SEC-MALS.

Changes are numbered by the printed parent chain. Numbers in names are those of the source.

B1: FOXP3 forkhead domain F373A (IPEX mutation) (domain or fragment, human)
chain: MRPPFTYATLIRWAILEAPEKQRTLNEIYHWFTRMFAAFRNHPATWKNAIRHNLSLHKCFVRVESEKGAVWTVDELEFRKKR
In the case of B1, the binding result is listed as “binds”.

B2: FOXP3 forkhead domain F371C (IPEX mutation) (domain or fragment, human)
chain: B1 chain with F36C, A38F
Broadly, the stoichiometry N is the number of molecules, sites or subunits per partner or assembly. As to B2, the “stoichiometry N” value turned out to be 2.

B3: FOXP3 forkhead domain double mutant (W348Q and M370T) (domain or fragment, human)
chain: B1 chain with W13Q, M35T, A38F
Consider B3, for which the binding result is listed as “binds”.

The values are drawn from publication PMC3085397 (Immunity, 2011).
